Data on five substances can be found in article PMC10410607.

Assay [1] concerns the target histidine-tagged human C5a (human) (UniProt P01031). Nature of the assay: SPR; Biacore X100; His-C5a captured on a Ni-activated NTA chip at 25 RU; S512A-ScpA or S512A-79ΔPro flowed at 5.625-90 nM, 30 uL/min, association 180 s, dissociation 200 s; 10 mM HEPES-KOH pH 7.5, 150 mM NaCl, 0.005% Tween 20, 50 uM EDTA; global fit, Langmuir model; triplicates. Background: SPR reads the build-up and loss of mass on a sensor chip optically.

Assay [2] shares this target. As to the kind of experiment: SPR; Biacore X100; His-C5a captured on a Ni-activated NTA chip at 25 RU; S512A-ScpA or S512A-79ΔPro flowed at 5.625-90 nM, 30 uL/min, association 180 s, dissociation 200 s; 10 mM HEPES-KOH pH 7.5, 150 mM NaCl, 0.005% Tween 20, 50 uM EDTA; global fit with a Langmuir model; triplicates.

As to “S512A-79ΔPro (active site mutated, propeptide truncated ScpA, amino acids 79-1032) (from UniProt P15926 79-1032) (enzyme)”, the Kd (in general, the equilibrium constant for the complex coming apart) in assay [1] was determined as 25 nM.
As to “S512A-79ΔPro, active site mutated propeptide-truncated ScpA (amino acids 79-1032) (from UniProt P15926 79-1032) (enzyme)”, in assay [2], the Kd came out at 35 nM; the koff (commonly a measure of how fast the partners let go of each other) came out at 0.00467 s⁻¹; the kon – broadly, the rate constant with which the complex forms – was found to be 187000 M⁻¹ s⁻¹.
“S512A-ScpA (active site mutated Streptococcus pyogenes C5a peptidase, amino acids 32-1032) (from UniProt P15926 32-1032) (enzyme)” came in with a Kd in assay [1] of 35 nM.
Turning to “S512A-ScpA, active site mutated Streptococcus pyogenes C5a peptidase (amino acids 32-1032) (from UniProt P15926 32-1032)”, the Kd in assay [2] amounted to 25 nM.
Take “S512A-ScpA, active site mutated Streptococcus pyogenes C5a peptidase (amino acids 32-1032) (from UniProt P15926 32-1032) (enzyme)”: in assay [2], the koff amounted to 0.00638 s⁻¹ and the kon was found to be 182000 M⁻¹ s⁻¹.
